Patent US11732029B2, “Methods and compositions for the treatment of wounds” (The University of Chicago, priority 2017, dated 2023)

What was measured:
VEGF-A145 = molecular target: T1, VEGF-A145 (Homo sapiens, UniProt P15692); experiment: vWF binding to recombinant VEGF-A isoforms (ELISA); conditions: plate coated with 50 nM vWF domains, 1 μg/mL VEGF-A, vs BSA
T1 construct: All GFs and chemokines were purchased in their mature forms; purchased R & D Systems
T1 sequence (P15692 27-171 isoform P15692-6 limits assumed): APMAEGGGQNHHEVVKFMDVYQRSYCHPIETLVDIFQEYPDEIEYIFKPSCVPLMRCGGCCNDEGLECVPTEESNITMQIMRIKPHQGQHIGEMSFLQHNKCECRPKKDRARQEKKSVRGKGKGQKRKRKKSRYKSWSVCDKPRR
Experimental: (§1) ELISA was performed as previously reported1. In brief, ELISA plates (med binding: Greiner Bio-One) were coated with 50 nM BSA (GE Healthcare), pro-peptide containing recombinant vWF (Sino Biological), plasma-derived vWF (EMD Millipore), recombinant human vWF A1 domain (U-Protein Express), recombinant human vWF A2 domain (R & D systems), recombinant human vWF A3 domain (U-Protein Express), vWF A1 HBD peptide or scrambled/mutated HBD peptide (all peptides were synthesized by Genscript). After blocking with 2% BSA solution containing PBS-T, 1 μg/mL of recombinant human VEGF-A121 (PeproTech), recombinant human VEGF-A145 (R & D Systems), or recombinant human VEGF-A165 (PeproTech) was added. Bound VEGF-A was detected with 1 μg/mL of mouse anti-human VEGF-A antibody (clone: 26503, R & D systems). After 60 min of incubation, horseradish peroxidase (HRP) conjugated goat anti-mouse antibody (1:2000 dilution, Dako) was added and incubated for another 60 min. Color development and the absorbance measurement were done as described above.

VEGF-A165 = molecular target: T2, VEGF-A165 (Homo sapiens, UniProt P15692); experiment: vWF binding to recombinant VEGF-A isoforms (ELISA); conditions: plate coated with 50 nM vWF domains, 1 μg/mL VEGF-A, vs BSA
T2 construct: All growth factors (GFs) and chemokines were purchased in their mature forms; purchased PeproTech; host or cells: Escherichia coli
T2 sequence (P15692 27-191 isoform P15692-4 limits assumed): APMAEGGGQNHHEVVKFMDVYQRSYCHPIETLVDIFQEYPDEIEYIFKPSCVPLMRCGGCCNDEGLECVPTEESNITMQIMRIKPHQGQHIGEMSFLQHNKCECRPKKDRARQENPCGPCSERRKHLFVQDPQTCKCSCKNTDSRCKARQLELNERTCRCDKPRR
Experimental: as §1

FGF-2 = FGF-2 (Homo sapiens, UniProt P09038); experiment: Recombinant GF binding to the vWF recombinant protein and A1 HBD peptide (ELISA); set-up: All growth factors (GFs) and chemokines were purchased in their mature forms; purchased PeproTech; host or cells: Escherichia coli; conditions: plate coated with vWF protein, A1 domain or HBD peptide, 1 μg/mL GF
Experimental: (§2) ELISA tests were performed as described above. In brief, ELISA plates were coated with 1 μg/mL of FL-vWF (WT or R1341Q), 1 μg/mL of vWF A1 recombinant protein (U-Protein Express) or 1 μg/mL of vWF A1 HBD peptide (sequence […], (SEQ ID NO:50) chemically synthesized by Genscript) at 37° C. overnight. After blocking with 2% BSA solution containing PBS-T, 1 μg/mL of the recombinant human proteins VEGF-A121, VEGF-A165, PlGF-1, PlGF-2, PDGF-BB, FGF-2, CXCL-12α and CXCL-12γ were added. 1 μg/mL of BSA served as non-binding protein control. Bound GF or chemokine was detected with biotinylated antibodies for human VEGF-A, PlGF, PDGF-BB, FGF-2, or CXCL-12 (R & D Systems). The antibodies were detected by streptavidin-HRP (R & D Systems). Color development and the absorbance measurement were done as described above.

PlGF-1 = molecular target: T3, PlGF-1 (Homo sapiens, UniProt P49763); experiment: as above; set-up: All growth factors (GFs) and chemokines were purchased in their mature forms; purchased PeproTech; host or cells: Escherichia coli; conditions: plate coated with vWF protein, A1 domain or HBD peptide, 1 μg/mL GF
T3 sequence (P49763 19-149 isoform P49763-2 limits assumed): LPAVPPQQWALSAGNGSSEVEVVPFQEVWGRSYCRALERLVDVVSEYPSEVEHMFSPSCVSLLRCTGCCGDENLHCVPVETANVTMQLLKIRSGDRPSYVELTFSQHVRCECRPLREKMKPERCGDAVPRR
Experimental: as §2

PlGF-2 = molecular target: T4, PlGF-2 (Homo sapiens, UniProt P49763); experiment: as above; set-up: All growth factors (GFs) and chemokines were purchased in their mature forms; purchased PeproTech; host or cells: Escherichia coli; conditions: plate coated with vWF protein, A1 domain or HBD peptide, 1 μg/mL GF
T4 sequence (P49763 19-170 isoform P49763-3 limits assumed): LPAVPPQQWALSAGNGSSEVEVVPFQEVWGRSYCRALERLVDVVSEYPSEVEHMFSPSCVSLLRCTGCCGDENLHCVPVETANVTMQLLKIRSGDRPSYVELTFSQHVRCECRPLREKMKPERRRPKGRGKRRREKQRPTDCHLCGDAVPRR
Experimental: as §2

VEGF-A121 [1] = molecular target: T5, VEGF-A121 (Homo sapiens, UniProt P15692); experiment: as above; set-up: All growth factors (GFs) and chemokines were purchased in their mature forms; purchased PeproTech; host or cells: Escherichia coli; conditions: plate coated with vWF protein, A1 domain or HBD peptide, 1 μg/mL GF
T5 sequence (P15692 27-147 isoform P15692-9 limits assumed): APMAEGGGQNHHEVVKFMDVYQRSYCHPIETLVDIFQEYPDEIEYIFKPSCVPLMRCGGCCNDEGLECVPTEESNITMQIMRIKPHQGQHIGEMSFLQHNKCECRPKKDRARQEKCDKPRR
Experimental: as §2

VEGF-A121 [2] = molecular target: T5, VEGF-A121; experiment: vWF binding to recombinant VEGF-A isoforms (ELISA); set-up: All growth factors (GFs) and chemokines were purchased in their mature forms; purchased PeproTech; host or cells: Escherichia coli; conditions: plate coated with 50 nM vWF domains, 1 μg/mL VEGF-A, vs BSA
Experimental: as §1

FGF-2, sequence (P09038 143-288): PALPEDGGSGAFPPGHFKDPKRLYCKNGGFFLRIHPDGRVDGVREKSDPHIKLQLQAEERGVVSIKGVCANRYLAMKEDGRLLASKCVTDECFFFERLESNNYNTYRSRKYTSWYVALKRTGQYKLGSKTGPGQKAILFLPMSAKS

Substance	binding to VEGF-A145 (VEGF-A145)	binding to VEGF-A165 (VEGF-A165)	binding to FGF-2 (FGF-2)	binding to PlGF-1 (PlGF-1)	binding to PlGF-2 (PlGF-2)	binding to VEGF-A121 (VEGF-A121 [1])	binding to VEGF-A121 (VEGF-A121 [2])
YIGLKDRKRPSELRRIASQVKYAC [vWF HBD]	able to bind	able to bind	showed binding	neither VEGF-A121 nor PlGF-1 were able to bind	showed binding	neither VEGF-A121 nor PlGF-1 were able to bind	
vWF: human plasma-derived von Willebrand factor (EMD Millipore)	bound	bind					did not
